# Reference: patent publication US20100239597A1
# Key:
# [1] = target: biotinylated ADDL (bADDL) (UniProt P05067); test: BIACORE, bADDL as antigen; IgG1#1
# biotin-Aβ1-20 [2] = target: biotin-Aβ1-20 (UniProt P05067); test: BIACORE, biotin-Aβ1-20 as antigen; IgG1#1
# [3] = target: biotinylated ADDL (bADDL) (UniProt P05067); test: BIACORE, bADDL as antigen; IgG1#2
# biotin-Aβ1-20 [4] = target: biotin-Aβ1-20 (UniProt P05067); test: BIACORE, biotin-Aβ1-20 as antigen; IgG1#2
Kd [1],Kd (biotin-Aβ1-20 [2]),Kd [3],Kd (biotin-Aβ1-20 [4]),Binder
0.053 nM,0.053 nM,–,–,"20C2-6B IgG1 (antibody, V domains shown) VH: QVTLKESGPALVKPTQTLTLTCTLSGFSLSTSGMGVGWIRQPPGKALEWLAHIWWDDDKSYNPSLKSRLTISKDTSKNQVVLTMTNMDPVDTATYYCARRQLGLRSIDAMDYWGQGTTVTVSS VL: DVVMTQSPLSLPVTPGEPASISCRSSQSILHSNGNTYLEWYLQKPGQSPQLLIYKVSNRFSGVPDRFSGSGSGTDFTLKISRVEAEDVGVYYCFQSSRVPLTFGQGTKLEIK"
0.013 nM,0.046 nM,0.0008 nM,0.064 nM,"20C2-8B IgG1 (antibody, V domains shown) VH: QVTLKESGPALVKPTQTLTLTCTLSGFSLSTSGMGVGWIRQPPGKALEWLAHIWWDDDKSYNPSLKSRLTISKDTSKNQVVLTMTNMDPVDTATYYCARRQLGLRSIDAMDYWGQGTTVTVSS VL: DVVMTQSPLSLPVTPGEPASISCRSSQSILHSNGNTYLEWYLQKPGQSPQLLIYKVSNRFSGVPDRFSGSGSGTDFTLKISRVEAEDVGVYYCLQTTRVPLTFGQGTKLEIK"
